Here are results for two molecules from US20250236683A1 (PHARMA FOODS INTERNATIONAL, published 2025).

In this assay the target is T1, human PAD2 protein (human, UniProt Q9Y2J8 1-665).
T1 construct: also called Peptidylarginine deiminase 2; Peptidyl arginine deiminase type-2
Kind of assay: SPR (Biacore 8K), antibody captured on Protein A chip, human PAD2 as analyte, single-cycle, 1:1 model. As to the method:
To evaluate the binding affinity of each anti-PAD2 antibody for human PAD2 protein, the dissociation constant (KD) was measured using a surface plasmon resonance system Biacore 8K (Cytiva). Series S Sensor Chip Protein A (Cytiva) was used as the sensor chip. HBS-EP+ buffer was used as the running buffer. The test antibody was prepared at 0.8 μg/mL by using the running buffer to make a ligand solution. The ligand solution was added to the flow cell at a flow rate of 10 μL/min for 60 seconds, and the flow cell without the ligand solution was used as a reference cell. The running buffer was used to prepare human PAD2 protein from several hundred pM to several tens of nM to make each analyte solution. The running buffer was also used as a blank solution. The blank solution or analyte solution was added at a flow rate of 30 μL/min for 120 seconds by using the single-cycle method, and the dissociation time was set to 1200 seconds. The sensorgram of the reference cell was subtracted from the sensorgram of the flow cell with the ligand when the blank solution or analyte solution was added. In addition, the sensorgram when the blank solution was added was subtracted from the sensorgram when the analyte solution was added, and then used for analysis. Biacore™ Insight Evaluation Software (Cytiva) was used to calculate binding parameters while using the 1:1 binding model.
In general terms: In SPR one partner is held on a chip, and binding of the other changes the refractive index at the surface.

T1 sequence (Q9Y2J8 whole entry): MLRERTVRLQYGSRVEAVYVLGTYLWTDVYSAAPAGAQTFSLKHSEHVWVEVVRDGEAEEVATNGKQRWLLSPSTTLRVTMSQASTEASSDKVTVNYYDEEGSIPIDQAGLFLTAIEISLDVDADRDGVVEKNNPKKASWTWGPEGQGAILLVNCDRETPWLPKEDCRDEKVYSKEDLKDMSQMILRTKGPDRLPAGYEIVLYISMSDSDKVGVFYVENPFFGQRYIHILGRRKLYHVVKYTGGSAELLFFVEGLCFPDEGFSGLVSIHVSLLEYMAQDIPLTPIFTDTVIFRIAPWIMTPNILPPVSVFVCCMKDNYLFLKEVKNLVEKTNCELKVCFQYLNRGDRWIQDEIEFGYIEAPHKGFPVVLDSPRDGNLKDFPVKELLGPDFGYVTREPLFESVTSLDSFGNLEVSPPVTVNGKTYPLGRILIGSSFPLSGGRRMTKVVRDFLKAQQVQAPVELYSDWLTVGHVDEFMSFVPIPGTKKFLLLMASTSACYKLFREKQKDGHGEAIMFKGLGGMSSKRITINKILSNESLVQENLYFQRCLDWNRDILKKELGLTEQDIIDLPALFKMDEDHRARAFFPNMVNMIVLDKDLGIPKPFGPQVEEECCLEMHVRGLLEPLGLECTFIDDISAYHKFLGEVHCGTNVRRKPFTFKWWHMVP

B1: PK1-16 (antibody, human IgG1, lambda, V domains shown)
VH: AVTLDESGGGLQTPGGGLSLVCKASGFTFRSYAMYWVRQAPGKGLEWLAGISSSGRYTGYAPAVKGRATISRDNGQSTVRLQLSNLRAEDAGTYYCAKDVYDSWTYANRIDAWGHGTEVIVSS
VL: ALTQPSSVSANPGETVKITCSGGGRRGYYGWYQQKSPGSAPVTVIYNNDERPSNIPSRFSGFKSGSTATLTITGVQAEDEAVYYCGSGDTTTDSGIFGAGTTLTVLG
notes: Chicken/human chimeric IgG1 expressed in 293 cells; also called anti-PAD2 antibody
For B1, the binding result was “binds”.

B2: CK1-10 (antibody, human IgG1, lambda, V domains shown)
VH: AVTLDESGGGLQTPGRALSLVCKASGFTFSDYGMGWMRQAPGKGLEWVGAISNRGSHTYYGAAVKGRATISRDNGQSTVRLQLNNLRAEDTGTYYCAKDAGTCISSYGFSCVSAASIDAWGHGTEVIVSS
VL: ALTQPSSVSANLGGTVKITCSGGSGSYGGSYYYGWYQQKAPGSAPVTLIYDNTNRPSNIPSRFSGSKSGSTATLTITGVQADDEAVYFCGSIDSISDADIFGAGTTLTVLG
notes: as for B1
For B2, the binding result is reported as “binds”.
